Blank lines part the entries; values can stand above or below the substance they belong to.
How the values were obtained:
[1] = target: sc22a_human SEC22A (UniProt Q96IW7)
[2] = target: vatl_human ATP6V0C (UniProt P27449)
[3] = target: ppla_human PLN (UniProt P26678)
[4] = target: mal_human MAL (UniProt P21145)
[5] = target: emp3_human EMP3 (UniProt P54852)
[6] = target: vtnc_human VTN (UniProt P04004)
[7] = target: T1, mycd_human MYOCD (UniProt Q8IZQ8)
T1 sequence: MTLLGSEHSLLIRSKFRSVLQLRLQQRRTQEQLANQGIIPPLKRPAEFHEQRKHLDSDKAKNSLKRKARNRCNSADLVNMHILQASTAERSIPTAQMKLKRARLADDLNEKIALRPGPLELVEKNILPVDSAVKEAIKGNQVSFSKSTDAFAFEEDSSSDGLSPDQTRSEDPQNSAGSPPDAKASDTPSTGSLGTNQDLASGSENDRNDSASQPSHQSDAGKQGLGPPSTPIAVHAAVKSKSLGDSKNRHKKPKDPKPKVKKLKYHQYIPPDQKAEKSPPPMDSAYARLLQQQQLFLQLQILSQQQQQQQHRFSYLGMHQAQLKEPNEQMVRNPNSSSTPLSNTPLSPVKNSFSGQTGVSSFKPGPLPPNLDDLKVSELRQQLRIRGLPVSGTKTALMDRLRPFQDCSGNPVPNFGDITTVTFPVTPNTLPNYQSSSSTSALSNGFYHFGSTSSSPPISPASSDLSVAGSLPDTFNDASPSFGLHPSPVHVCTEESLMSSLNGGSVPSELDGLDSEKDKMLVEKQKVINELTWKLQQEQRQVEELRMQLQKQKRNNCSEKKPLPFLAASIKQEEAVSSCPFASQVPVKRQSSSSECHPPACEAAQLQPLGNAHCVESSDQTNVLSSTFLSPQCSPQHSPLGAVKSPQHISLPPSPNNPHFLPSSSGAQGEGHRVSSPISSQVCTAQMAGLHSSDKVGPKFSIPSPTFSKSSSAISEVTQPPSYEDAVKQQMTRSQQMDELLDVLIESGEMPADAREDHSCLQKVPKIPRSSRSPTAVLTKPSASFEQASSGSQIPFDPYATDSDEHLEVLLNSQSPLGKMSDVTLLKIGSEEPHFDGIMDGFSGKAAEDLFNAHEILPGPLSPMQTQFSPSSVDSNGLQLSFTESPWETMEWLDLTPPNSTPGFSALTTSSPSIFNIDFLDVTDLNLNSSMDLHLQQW

[8] = target: gt253_human CERCAM (UniProt Q5T4B2)
[9] = target: cep63_human CEP63 (UniProt Q96MT8)
[10] = target: txnd5_human TXNDC5 (UniProt Q8NBS9)
[11] = target: sdcb1_human SDCBP (UniProt O00560)
[12] = target: ut14c_human UTP14C (UniProt Q5TAP6)
[13] = target: lmo4_human LMO4 (UniProt P61968)
[14] = target: mare1_human MAPRE1 (UniProt Q15691)
[15] = target: prp31_human PRPF31 (UniProt Q8WWY3)
[16] = target: pdli7_human PDLIM7 (UniProt Q9NR12)
[17] = target: fxl18_human FBXL18 (UniProt Q96ME1)
[18] = target: hnrl1_human HNRNPUL1 (UniProt Q9BUJ2)
[19] = target: erep1_human ENTREP1 (UniProt Q15884)
[20] = target: TSC22D4 (UniProt Q9Y3Q8)
[21] = target: T2, fsd2_human FSD2 (UniProt A1L4K1)
T2 sequence: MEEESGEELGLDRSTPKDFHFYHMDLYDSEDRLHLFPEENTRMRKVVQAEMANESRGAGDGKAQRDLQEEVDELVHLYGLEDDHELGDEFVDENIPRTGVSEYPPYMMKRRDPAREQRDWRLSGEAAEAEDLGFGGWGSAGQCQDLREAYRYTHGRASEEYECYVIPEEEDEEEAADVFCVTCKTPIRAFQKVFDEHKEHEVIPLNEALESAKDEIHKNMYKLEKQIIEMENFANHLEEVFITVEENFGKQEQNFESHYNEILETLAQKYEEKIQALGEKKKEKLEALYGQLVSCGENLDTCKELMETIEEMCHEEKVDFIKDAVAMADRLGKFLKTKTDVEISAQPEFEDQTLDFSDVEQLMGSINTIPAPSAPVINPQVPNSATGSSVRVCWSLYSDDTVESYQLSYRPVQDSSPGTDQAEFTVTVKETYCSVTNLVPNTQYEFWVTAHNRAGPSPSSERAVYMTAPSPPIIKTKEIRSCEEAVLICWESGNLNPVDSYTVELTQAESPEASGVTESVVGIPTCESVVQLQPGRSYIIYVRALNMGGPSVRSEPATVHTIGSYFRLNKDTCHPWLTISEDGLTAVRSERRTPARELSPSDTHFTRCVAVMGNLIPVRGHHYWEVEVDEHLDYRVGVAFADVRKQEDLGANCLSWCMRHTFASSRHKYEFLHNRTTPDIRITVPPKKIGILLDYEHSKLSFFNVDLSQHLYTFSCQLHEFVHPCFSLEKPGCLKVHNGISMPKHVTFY

[22] = target: hem1_human ALAS1 (UniProt P13196)
[23] = target: T3, goga2_human GOLGA2 (UniProt Q08379)
T3 sequence: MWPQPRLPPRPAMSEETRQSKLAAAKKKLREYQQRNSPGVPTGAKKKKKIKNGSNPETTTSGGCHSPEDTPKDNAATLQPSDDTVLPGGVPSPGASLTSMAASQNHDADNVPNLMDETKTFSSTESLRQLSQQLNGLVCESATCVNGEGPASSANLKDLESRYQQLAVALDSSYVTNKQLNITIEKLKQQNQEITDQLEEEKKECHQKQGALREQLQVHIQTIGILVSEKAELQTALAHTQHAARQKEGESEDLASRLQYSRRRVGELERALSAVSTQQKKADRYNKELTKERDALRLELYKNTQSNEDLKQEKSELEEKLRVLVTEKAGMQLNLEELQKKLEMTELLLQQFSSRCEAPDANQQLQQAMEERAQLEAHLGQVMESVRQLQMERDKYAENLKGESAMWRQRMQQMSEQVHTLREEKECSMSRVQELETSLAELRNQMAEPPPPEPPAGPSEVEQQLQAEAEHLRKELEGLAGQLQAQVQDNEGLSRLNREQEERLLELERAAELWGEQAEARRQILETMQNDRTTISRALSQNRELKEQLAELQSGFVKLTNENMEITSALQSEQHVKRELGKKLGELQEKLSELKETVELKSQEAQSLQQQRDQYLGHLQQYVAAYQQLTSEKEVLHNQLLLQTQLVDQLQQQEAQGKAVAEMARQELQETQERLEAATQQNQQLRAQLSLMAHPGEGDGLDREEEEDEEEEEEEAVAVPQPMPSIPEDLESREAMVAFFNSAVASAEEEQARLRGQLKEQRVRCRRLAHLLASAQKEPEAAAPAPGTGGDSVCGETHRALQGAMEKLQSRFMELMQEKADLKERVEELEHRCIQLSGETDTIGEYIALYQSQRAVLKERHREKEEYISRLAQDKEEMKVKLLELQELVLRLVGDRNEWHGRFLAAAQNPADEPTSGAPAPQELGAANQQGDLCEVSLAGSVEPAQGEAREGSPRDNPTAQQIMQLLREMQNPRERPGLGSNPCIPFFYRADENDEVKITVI

[24] = target: mtus2_human MTUS2 (UniProt Q5JR59)

Ectodysplasin-A (Homo sapiens), Q92838 A367T, sequence (Q92838 whole entry A367T): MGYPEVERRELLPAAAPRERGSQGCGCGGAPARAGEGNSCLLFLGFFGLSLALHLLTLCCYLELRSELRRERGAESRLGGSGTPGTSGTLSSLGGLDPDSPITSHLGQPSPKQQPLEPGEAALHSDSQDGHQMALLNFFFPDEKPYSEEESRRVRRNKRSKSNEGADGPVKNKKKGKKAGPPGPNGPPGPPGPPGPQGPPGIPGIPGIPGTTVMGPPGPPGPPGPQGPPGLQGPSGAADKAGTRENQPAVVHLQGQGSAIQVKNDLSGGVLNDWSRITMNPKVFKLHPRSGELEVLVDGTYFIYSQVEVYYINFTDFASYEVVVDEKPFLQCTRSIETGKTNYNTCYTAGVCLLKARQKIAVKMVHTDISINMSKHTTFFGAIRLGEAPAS
ut14c_human UTP14C, sequence (Q5TAP6 whole entry): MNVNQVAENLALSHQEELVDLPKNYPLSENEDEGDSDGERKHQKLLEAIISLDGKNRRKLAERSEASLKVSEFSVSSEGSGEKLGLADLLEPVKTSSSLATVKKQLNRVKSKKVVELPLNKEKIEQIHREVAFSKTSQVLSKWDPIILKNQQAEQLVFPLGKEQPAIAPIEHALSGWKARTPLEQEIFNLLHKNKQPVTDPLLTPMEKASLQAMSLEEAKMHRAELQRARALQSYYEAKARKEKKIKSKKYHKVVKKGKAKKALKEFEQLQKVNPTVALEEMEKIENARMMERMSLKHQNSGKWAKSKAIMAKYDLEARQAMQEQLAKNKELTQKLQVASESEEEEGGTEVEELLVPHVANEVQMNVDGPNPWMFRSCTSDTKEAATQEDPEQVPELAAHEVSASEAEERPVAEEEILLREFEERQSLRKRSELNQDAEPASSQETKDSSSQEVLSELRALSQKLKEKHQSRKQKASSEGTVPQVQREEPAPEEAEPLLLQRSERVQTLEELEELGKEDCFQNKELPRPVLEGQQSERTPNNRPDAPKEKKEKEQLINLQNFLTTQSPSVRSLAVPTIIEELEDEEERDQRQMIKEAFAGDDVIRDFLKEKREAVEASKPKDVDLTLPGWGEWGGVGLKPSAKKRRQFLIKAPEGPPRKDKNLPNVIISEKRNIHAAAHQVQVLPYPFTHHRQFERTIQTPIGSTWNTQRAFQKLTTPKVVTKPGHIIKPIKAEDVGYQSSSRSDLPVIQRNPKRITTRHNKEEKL
fxl18_human FBXL18, sequence (Q96ME1 whole entry): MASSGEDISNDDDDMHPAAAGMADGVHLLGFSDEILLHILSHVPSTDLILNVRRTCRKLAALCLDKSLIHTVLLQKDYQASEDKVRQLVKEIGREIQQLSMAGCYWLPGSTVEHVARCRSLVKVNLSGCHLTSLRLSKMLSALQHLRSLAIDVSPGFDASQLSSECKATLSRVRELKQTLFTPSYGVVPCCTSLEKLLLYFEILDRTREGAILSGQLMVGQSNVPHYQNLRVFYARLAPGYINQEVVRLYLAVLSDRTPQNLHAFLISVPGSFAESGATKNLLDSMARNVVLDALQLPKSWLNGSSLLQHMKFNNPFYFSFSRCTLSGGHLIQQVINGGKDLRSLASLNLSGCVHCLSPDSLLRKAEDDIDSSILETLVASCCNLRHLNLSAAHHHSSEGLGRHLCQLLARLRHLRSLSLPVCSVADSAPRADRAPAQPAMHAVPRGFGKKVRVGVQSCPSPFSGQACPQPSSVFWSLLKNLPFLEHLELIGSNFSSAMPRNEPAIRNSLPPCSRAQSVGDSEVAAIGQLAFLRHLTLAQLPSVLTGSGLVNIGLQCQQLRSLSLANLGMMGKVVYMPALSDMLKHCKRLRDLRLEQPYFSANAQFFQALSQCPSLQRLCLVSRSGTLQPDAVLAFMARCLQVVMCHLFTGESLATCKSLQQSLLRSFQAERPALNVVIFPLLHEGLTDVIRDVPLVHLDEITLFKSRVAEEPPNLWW
prp31_human PRPF31, sequence (Q8WWY3 whole entry): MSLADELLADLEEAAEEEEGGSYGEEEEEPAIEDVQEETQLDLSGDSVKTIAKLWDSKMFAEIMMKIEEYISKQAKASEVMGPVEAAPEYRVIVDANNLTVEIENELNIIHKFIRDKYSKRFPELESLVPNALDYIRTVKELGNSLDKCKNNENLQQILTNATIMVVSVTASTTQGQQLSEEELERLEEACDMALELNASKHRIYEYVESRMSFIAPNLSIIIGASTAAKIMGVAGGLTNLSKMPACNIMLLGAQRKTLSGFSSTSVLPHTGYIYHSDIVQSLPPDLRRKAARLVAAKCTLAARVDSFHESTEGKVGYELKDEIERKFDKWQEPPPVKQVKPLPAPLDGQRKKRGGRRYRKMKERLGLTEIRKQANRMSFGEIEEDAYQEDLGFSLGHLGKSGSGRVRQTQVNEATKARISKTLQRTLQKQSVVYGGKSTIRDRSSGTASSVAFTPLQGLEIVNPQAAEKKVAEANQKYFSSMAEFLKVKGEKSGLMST
sdcb1_human SDCBP, sequence (O00560 whole entry): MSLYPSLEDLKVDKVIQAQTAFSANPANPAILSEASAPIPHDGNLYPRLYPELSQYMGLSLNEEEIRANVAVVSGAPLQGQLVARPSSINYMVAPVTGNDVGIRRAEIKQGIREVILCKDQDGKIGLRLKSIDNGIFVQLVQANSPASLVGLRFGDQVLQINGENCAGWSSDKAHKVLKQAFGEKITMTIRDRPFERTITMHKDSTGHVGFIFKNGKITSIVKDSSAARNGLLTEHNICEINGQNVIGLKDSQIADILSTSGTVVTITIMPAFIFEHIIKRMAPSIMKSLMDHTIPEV
Ectodysplasin-A (Homo sapiens), Q92838 R153H, sequence (Q92838 whole entry R153H): as the sequence (Q92838 whole entry A367T) above, with R153H, T367A counted along it
mare1_human MAPRE1, sequence (Q15691 whole entry): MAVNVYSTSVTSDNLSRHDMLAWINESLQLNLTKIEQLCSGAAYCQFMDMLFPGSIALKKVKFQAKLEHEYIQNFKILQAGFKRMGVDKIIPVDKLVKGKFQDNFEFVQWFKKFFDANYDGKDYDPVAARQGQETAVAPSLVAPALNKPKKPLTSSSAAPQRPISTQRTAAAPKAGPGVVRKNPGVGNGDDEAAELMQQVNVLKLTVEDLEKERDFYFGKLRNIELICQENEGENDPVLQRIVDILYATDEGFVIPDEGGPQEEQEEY
lmo4_human LMO4, sequence (P61968 whole entry): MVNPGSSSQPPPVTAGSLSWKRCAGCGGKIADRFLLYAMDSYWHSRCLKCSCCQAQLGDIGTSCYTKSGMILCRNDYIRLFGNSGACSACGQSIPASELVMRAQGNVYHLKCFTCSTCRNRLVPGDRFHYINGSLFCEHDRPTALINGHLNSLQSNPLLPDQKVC
sc22a_human SEC22A, sequence (Q96IW7 whole entry): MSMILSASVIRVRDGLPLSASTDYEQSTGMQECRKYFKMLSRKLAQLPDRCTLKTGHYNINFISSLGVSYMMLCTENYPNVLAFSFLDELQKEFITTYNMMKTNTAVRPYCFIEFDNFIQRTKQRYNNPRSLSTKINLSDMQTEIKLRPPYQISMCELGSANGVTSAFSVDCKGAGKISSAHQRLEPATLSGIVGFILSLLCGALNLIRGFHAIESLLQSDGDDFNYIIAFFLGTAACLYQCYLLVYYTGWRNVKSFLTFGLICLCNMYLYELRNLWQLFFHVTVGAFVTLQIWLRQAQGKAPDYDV
hnrl1_human HNRNPUL1, sequence (Q9BUJ2 whole entry): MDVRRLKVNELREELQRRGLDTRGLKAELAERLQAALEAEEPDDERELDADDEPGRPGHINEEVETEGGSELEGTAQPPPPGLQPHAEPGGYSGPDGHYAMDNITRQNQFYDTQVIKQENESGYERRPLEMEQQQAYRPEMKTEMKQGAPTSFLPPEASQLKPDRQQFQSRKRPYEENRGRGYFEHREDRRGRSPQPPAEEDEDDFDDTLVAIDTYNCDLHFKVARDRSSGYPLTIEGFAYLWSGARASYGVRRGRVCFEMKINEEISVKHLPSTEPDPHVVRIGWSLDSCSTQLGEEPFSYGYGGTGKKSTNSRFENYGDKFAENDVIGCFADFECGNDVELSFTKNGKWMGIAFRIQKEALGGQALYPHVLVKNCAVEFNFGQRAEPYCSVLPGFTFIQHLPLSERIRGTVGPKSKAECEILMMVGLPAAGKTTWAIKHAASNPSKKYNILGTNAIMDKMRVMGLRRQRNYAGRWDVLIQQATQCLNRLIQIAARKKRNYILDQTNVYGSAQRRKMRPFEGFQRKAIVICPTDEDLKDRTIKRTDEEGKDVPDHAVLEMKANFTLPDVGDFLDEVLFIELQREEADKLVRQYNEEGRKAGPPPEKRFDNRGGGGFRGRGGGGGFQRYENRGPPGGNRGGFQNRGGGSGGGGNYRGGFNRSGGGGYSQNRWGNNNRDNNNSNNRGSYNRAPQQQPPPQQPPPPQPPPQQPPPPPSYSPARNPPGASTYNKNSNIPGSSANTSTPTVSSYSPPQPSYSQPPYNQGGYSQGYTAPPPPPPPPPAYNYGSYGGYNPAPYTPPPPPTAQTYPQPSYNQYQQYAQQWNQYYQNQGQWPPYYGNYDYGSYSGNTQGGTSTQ
TSC22D4, sequence (Q9Y3Q8 whole entry): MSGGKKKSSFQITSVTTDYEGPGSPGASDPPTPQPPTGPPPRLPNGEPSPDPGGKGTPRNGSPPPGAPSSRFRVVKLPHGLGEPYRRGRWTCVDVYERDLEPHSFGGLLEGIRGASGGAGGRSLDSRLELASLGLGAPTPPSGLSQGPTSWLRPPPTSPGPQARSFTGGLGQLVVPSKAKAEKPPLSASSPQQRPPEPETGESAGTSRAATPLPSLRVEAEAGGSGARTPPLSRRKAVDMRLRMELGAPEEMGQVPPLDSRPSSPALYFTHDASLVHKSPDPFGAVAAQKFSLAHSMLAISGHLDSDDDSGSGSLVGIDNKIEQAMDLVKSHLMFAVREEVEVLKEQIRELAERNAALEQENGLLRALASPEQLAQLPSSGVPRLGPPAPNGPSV
mal_human MAL, sequence (P21145 whole entry): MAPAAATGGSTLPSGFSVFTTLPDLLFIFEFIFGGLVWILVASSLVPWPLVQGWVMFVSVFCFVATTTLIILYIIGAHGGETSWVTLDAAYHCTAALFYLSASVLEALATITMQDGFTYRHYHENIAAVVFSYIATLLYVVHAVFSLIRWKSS
ppla_human PLN, sequence (P26678 whole entry): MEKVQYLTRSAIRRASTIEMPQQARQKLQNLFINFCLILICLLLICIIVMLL

Substance: Ectodysplasin-A (Homo sapiens), Q92838 R153H
effect of a mutation on the interaction [1]: with no effect
effect of a mutation on the interaction [2]: with no effect
effect of a mutation on the interaction [3]: with no effect
effect of a mutation on the interaction [4]: with no effect
effect of a mutation on the interaction [5]: with no effect

Substance: Golgi-associated PDZ and coiled-coil motif-containing protein (Homo sapiens) (from UniProt Q9HD26) G53E
effect of a mutation on the interaction [6]: disrupting interaction strength
effect of a mutation on the interaction [7]: disrupting interaction strength
effect of a mutation on the interaction [8]: disrupting interaction strength

Substance: Histone-lysine N-methyltransferase EZH2 (Homo sapiens), Q15910-2 R288Q
effect of a mutation on the interaction [9]: with no effect

Substance: Mannose-1-phosphate guanylyltransferase catalytic subunit beta (Homo sapiens), Q9Y5P6 H126D
effect of a mutation on the interaction [10]: with no effect

Substance: Mannose-1-phosphate guanylyltransferase catalytic subunit beta (Homo sapiens), Q9Y5P6 R158Q
effect of a mutation on the interaction [10]: with no effect

Substance: Myomegalin (Homo sapiens), Q5VU43 E391A
effect of a mutation on the interaction [11]: with no effect
effect of a mutation on the interaction [12]: with no effect
effect of a mutation on the interaction [13]: with no effect
effect of a mutation on the interaction [14]: with no effect
effect of a mutation on the interaction [15]: with no effect

Substance: Myomegalin (Homo sapiens), Q5VU43 I612T
effect of a mutation on the interaction [11]: with no effect
effect of a mutation on the interaction [12]: with no effect
effect of a mutation on the interaction [13]: with no effect
effect of a mutation on the interaction [14]: with no effect
effect of a mutation on the interaction [15]: with no effect

Substance: Myomegalin (Homo sapiens), Q5VU43 M783I
effect of a mutation on the interaction [11]: with no effect
effect of a mutation on the interaction [12]: with no effect
effect of a mutation on the interaction [13]: with no effect
effect of a mutation on the interaction [14]: with no effect
effect of a mutation on the interaction [15]: with no effect

Substance: NEDD4-like E3 ubiquitin-protein ligase WWP2 (Homo sapiens), O00308 H401R
effect of a mutation on the interaction [16]: with no effect
effect of a mutation on the interaction [17]: with no effect
effect of a mutation on the interaction [18]: with no effect
effect of a mutation on the interaction [19]: with no effect

Substance: Nuclear receptor-binding protein (Homo sapiens), Q9UHY1 P432L
effect of a mutation on the interaction [20]: with no effect

Substance: Nuclear receptor-binding protein (Homo sapiens), Q9UHY1 V365I
effect of a mutation on the interaction [20]: with no effect

Substance: Parafibromin (Homo sapiens) (from UniProt Q6P1J9) R156H
effect of a mutation on the interaction [21]: with no effect
effect of a mutation on the interaction [22]: with no effect
effect of a mutation on the interaction [23]: with no effect

Substance: Zinc finger protein 224 (Homo sapiens), Q9NZL3 K640E
effect of a mutation on the interaction [24]: with no effect

Substance: Zinc finger protein 224 (Homo sapiens), Q9NZL3 Q447H
effect of a mutation on the interaction [24]: with no effect

Further lines, results first:

effect of a mutation on the interaction [1]: with no effect
effect of a mutation on the interaction [2]: with no effect
effect of a mutation on the interaction [3]: with no effect
effect of a mutation on the interaction [4]: with no effect
effect of a mutation on the interaction [5]: with no effect
Substance: Ectodysplasin-A (Homo sapiens), Q92838 A367T

effect of a mutation on the interaction [9]: with no effect
Substance: Histone-lysine N-methyltransferase EZH2 (Homo sapiens), Q15910-2 N640K

effect of a mutation on the interaction [17]: with no effect
Substance: NEDD4-like E3 ubiquitin-protein ligase WWP2 (Homo sapiens), O00308 R178Q

effect of a mutation on the interaction [16]: with no effect
effect of a mutation on the interaction [17]: with no effect
effect of a mutation on the interaction [18]: with no effect
effect of a mutation on the interaction [19]: with no effect
Substance: NEDD4-like E3 ubiquitin-protein ligase WWP2 (Homo sapiens), O00308 R215W

effect of a mutation on the interaction [21]: disrupting interaction strength
effect of a mutation on the interaction [22]: disrupting interaction strength
effect of a mutation on the interaction [23]: disrupting interaction strength
Substance: Parafibromin (Homo sapiens) (from UniProt Q6P1J9) L95P

effect of a mutation on the interaction [21]: with no effect
effect of a mutation on the interaction [22]: with no effect
effect of a mutation on the interaction [23]: with no effect
Substance: Parafibromin (Homo sapiens) (from UniProt Q6P1J9) R147C

From IntAct's records for PubMed 31515488
